Patent publication US10961303 (UNIVERSITEIT TWENTE, dated 2021)

T1: BMP-7 (R&D system cat. #354-BP/CF) (UniProt P18075 293-431)
T1 construct: Bought protein
T1 sequence (looked up): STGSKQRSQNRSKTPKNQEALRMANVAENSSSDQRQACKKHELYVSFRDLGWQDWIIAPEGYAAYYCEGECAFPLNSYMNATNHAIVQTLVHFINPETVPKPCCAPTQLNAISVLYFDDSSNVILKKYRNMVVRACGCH

T2: BMP-6 (R&D systems cat. #507-BP/CF) (human, UniProt P22004 382-513, limits assumed)
T2 construct: Bought protein; also called recombinant human BMP-6
T2 sequence (looked up): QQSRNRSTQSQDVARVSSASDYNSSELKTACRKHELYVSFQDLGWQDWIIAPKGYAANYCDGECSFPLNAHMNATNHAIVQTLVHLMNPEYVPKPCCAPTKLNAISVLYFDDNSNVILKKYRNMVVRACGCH


Legend:
[1] = target: T1, BMP-7 (R&D system cat. #354-BP/CF); assay: binding test to cognate antigen, method not described
[2] = target: T2, BMP-6 (R&D systems cat. #507-BP/CF); assay: ELISA, 100 ng BMP6 coated, serial dilutions, read at 490 nm
Excerpt: FIG. 7A-7B show the binding properties of the fusion proteins according to the invention which bind to a growth factor or growth factor inhibitor and to a biomaterial. Fusion proteins according to the invention are composed of the VHH according to the invention binding to a growth factor (indicated in the figure as "VHH-6-F2") and a VHH binding to a biomaterial (indicated in the figure as "MA"). […] The fusion proteins (indicated in the figure as "F") were constructed by genetic fusion of a VHH binding to BMP6 and a VHH binding to hydroxyapatite. To achieve binding to the growth factor BMP6 (FIG. 7A), 100 ng of BMP6 was coated into wells of a maxisorb plate. Serial dilutions of the VHH which binds to BMP6 (VHH-6-F2) and fusion proteins according to the invention (F) were added to the wells. Bound VHHs (VHH-6-F2) and fusion proteins (F) were detected with labelled polyclonal antibodies.

[3] = target: T2, BMP-6 (R&D systems cat. #507-BP/CF); assay: solid phase ELISA, wells coated with ~200 ng BMP6
Protocol: (§1) The indicated amounts of VHHs were incubated with wells coated with ~200 ng BMP6, 200 ng BMP7 or no BMPs (PBS). After several washes, bound VHHs were detected with a rabbit anti-VHH serum and a Donkey anti-rabbit antibody coupled to a peroxidase. The amount of converted OPD (Absorbance at 490 nm; A 490 nm) is proportional to the amount of bound VHHs.
(§2) MaxiSorb plate wells were coated overnight at 4° C., with the antigens in PBS. After blocking of the wells with 4% marvel in PBS, they were incubated with VHH or VHH-fused to M13 phages in the presence of 2% Marvel. The wells were washed with PBS-tween, and bound phages were detected by incubation with a mouse Monoclonal antibody against M13 phage coupled to HRP. Bound VHH were detected by incubation with a rabbit anti-VHH polyclonal serum and a goat anti-rabbit coupled to HRP. The amount of HRP was developed by the addition of OPD. The reactions were stopped by the addition of H_2SO_4 and measured at 490 nm.

[4] = target: T1, BMP-7 (R&D system cat. #354-BP/CF); assay: solid phase ELISA, wells coated with 200 ng BMP7
Protocol: as §1, §2

[5] = target: T2, BMP-6 (R&D systems cat. #507-BP/CF); assay: solid phase ELISA, wells coated with 200 ng BMP
Protocol: as §1, §2

[6] = target: T1, BMP-7 (R&D system cat. #354-BP/CF); assay: SPR, VHH coupled to CM5 chip, BMP injected
[7] = target: T2, BMP-6 (R&D systems cat. #507-BP/CF); assay: SPR, VHH coupled to CM5 chip, BMP injected

Row | Binder | binding result [3] | binding result [4] | also measured
1 | Glyco-VHH (glycosylated VHH-7-G7 with an N-glycosylation site introduced in loop5, made in yeast) (VHH, N-linked glycosyl group at the glycosylation site introduced in loop5 (position not given), Expressed in S. cerevisiae; also called mutated VHH) VHH: EVQLVESGGGLVQAGGSLRLSCAASGFTFDDYIIGWFRQAPGKEREGISCISSSDGSTYYADSVTGRFTISSDNANNTVYLQMNSLKPEDTAVYYCAAHAKWPYGTYSFRRCRRASFDSWGQGTQVTVSS | – | – | binding result [1]: binds
2 | VHH-6-F2 (VHH, Llama VHH selected against BMP6; not shown: C-terminal Myc and His tags) VHH: EVQLVESGGGFVQAGGSLRLSCAASGSIFSINAMGWYRQAPGKQRELVAAITSGGSTNYADSVKGRFTISRDNAKNTLYLQMNSLKPEDTAVYYCSAVTILLTSGGWGSGNDYWGQGTQVTVSS | – | – | binding result [2]: binds
3 | VHH-6-D6 (VHH, Llama VHH selected against BMP6, made in E. coli periplasm; not shown: C-terminal Myc and His tags) VHH: EVQLVESGGGLVQAGGSLRLSCAASGRTFSSYGMGWFRQAPGKERDFVAAVSKSGGSTYYTASVKGRFTVSRDNAKNTVYLQMNSLKPEDTAVYYCAAGRWESGSRPGSTWYGERTYDYWGQGTQVTVSS | binds | – | –
4 | VHH-6-C1 (VHH, Llama VHH selected against BMP6; not shown: C-terminal Myc and His tags) VHH: EVQLVESGGGLVQAGGSLRLSCAASGRTFSSYGMGWFRQAPGKERDFVAAVSRSGGNTYYTASVKGRFTISRDNAKNTMYLQMNSLKPEDTAVYYCAAGRWESGSRLGSTWYGERTYDYWGQGTQVTVSS | binds | – | –
5 | VHH-7-B8 (VHH, Llama VHH selected against BMP7; not shown: C-terminal Myc and His tags) VHH: EVQLVESGGGLVRAGGSLRLSCAASGRTFSGYVAGWFRQAPGKEREFVAAISWSGITYYGDSVKGRFTIARDNSKNGVYLQMNSLKPEDTAVYYCGAGKGYYKDYRGYDYWGQGTQVTVSS | – | binds | –
6 | VHH-6-H1 (VHH, Llama VHH selected against BMP6; In SPR coupled to a CM5 chip by NHS chemistry; also called monohead VHH-6-H1; not shown: C-terminal Myc and His tags) VHH: EVQLVESGGGLVQAGGSLRLSCAASGSIFSIVSMGWYRQVPGKQRELVAAITSAGSTNYGDSAKGRFTISRDNAKNTVYLQMNSLKPEDTAVYYCNSYGLGYPGDYGIDYWGKGTLVTVSS | – | – | binding result [6]: binds; binding result [7]: binds

Continued, in another order:

Row | binding result [3] | binding result [4] | Binder | also measured
7 | – | binds | VHH-7-F11 (VHH, Llama VHH selected against BMP7; In SPR coupled to a CM5 chip by NHS chemistry; not shown: C-terminal Myc and His tags) VHH: EVQLVESGGGLVQAGGSLRLSCAASGRTFSGYVAGWFRQAPGKEREFVAASSWSGITYYGDSVKGRFTISRDNAKNTVYLQMNSLKPEDTAVYYCGAGKGYYKDYRGYDYWGQGTQVTVSS | binding result [5]: no binding
8 | binds | binds | VHH-6-C2 (VHH, Llama VHH selected against BMP6, cross-reactive with BMP7; not shown: C-terminal Myc and His tags) VHH: EVQLVESGGGLVQVGGSLRLSCAASGRTSSMYSMGWFRQAPGKEREFVAAIGWRFGEKYYTNSVKGRFTISRDGAENTNTVYLQMNSLKPDDTAVYYCAADPDDASQYYSDWMKGYGMDYWGKGTLVTVSS | –
